The results in this text go back to paper PMC7430590 (bioRxiv, 2020).

Test [1] has as its target Fc fusion protein of the RBD-SD1 region of SARS-CoV (SARS-CoV, strain not named, UniProt P59594). In words: ELISA. For orientation: In an ELISA, binding on a coated surface is turned into a signal by an enzyme label.
The target in test [2] is receptor binding domain (RBD; residues 319–541) of the SARS-CoV-2 spike (S) protein (SARS-CoV-2, UniProt P0DTC2). In words: crystal structure.
Test [3] addresses SARS-CoV-2 S protein-RBD-mFc (SARS-CoV-2, early reference sequence …, UniProt P0DTC2). Briefly: SPR. On the technique in general: Surface plasmon resonance follows binding to a sensor surface in real time, without labels.

B1: CV38–142 (antibody, V domains shown)
VH: EVQLVQSGAEVKKPGESLKISCQGSGYSFTSYWIGWVRQMPGKGLEWMGIIYPGESDTRYSSSFQGHVTISADKSISTAYLQWSSLKASDTAMYYCARIRGVYSSGWIGGDYWGQGTLVTVSS
VL: not shown
Regarding B1, the binding result in test [1] was “binds”.

B2: CV07–270 Fab (Fab, V domains shown)
VH: QVQLVESGGGLVKPGGSLRLSCAASGFTFSDYYMTWIRQAPGKGLEWVSYISSSGSTIYYADSVKGRFTISRDNAKNSLYLQMNSLRAEDTAVYYCARARGSSGWYRIGTRWGNWFDPWGQGTLVTVSS
VL: QSALTQPASVSGSPGQSITISCTGTSSDVGGYNYVSWYQQHPGKAPKLMIYEVSNRPSGVSNRFSGSKSGNTASLTISGLQAEDEADYYCSSYTSSSNVVFGGGTMLTVL
Turning to B2, the binding result in test [2] is recorded as “binds”.

B3: CV07–209 (antibody, V domains shown)
VH: QVQLVESGGGLVKPGGSLRLSCAASGFTFSDYYMSWIRQAPGKGLEWVSYISSSVSTIYYADSVKGRFTISRDNAKNSLYLQMNSLRAEDTAVYYCARDGVIPPRFDYWGQGTLVTVSS
VL: not shown
One may read the Kd as the equilibrium constant for the complex coming apart. A high value points to a looser complex. In the case of B3, binding in test [3] was put at a Kd of 6 pM.
